Laboratory results reported in US20190077860A1 (EISAI R AND D MANAGEMENT, published 2019).

What was measured:
[1] = target: T1, monkey EphA4 extracellular region-Fc-His protein (monkey; human); assay: ELISA, EphA4 extracellular region-Fc-His (1 nM) captured on the plate, antibody A titrated, HRP anti-mouse IgG detection, OD 450 nm
T1 construct: used as culture supernatant
Procedure: (§1) Each well of a 96-well plate (Nunc) was coated with a […] (Jackson ImmunoResearch Laboratories). After incubation overnight at 4° C., each well was blocked with 1% BlockAce (Sumitomo Dainippon Pharma) at room temperature for 1 hour. After washing with 0.05% Tween 20/PBS (Nacalai Tesque) three times, the mouse, rat, monkey, or human EphA4 extracellular region-Fc-His protein was disseminated (final concentration: 1 nM) to each well and incubated at room temperature for 1 hour. After washing three times, a human IgG solution (100 μg/mL, Mitsubishi Pharma) and antibody A (0, 0.00128, 0.0064, 0.032, 0.16, 0.8, 4, and 20 μg/mL) were added to each well and incubated at room temperature for 1 hour. A horseradish peroxidase-labeled donkey anti-mouse IgG antibody (Jackson ImmunoResearch Laboratories) was added thereto and incubated at room temperature for 1 hour. After washing three times, a TMBZ (3,3′,5,5′-tetramethylbenzidine, Sigma-Aldrich) solution was added to each well. After confirmation of moderate color development, an equal amount of a reaction stopping solution (1N H₂SO₄, Wako Pure Chemical Industries) was added to each well. The absorbance at 450 nm was read using a microplate reader (PerkinElmer).

[2] = target: T2, mouse EphA4 extracellular region-Fc-His protein (mouse; human, UniProt Q03137 20-547); assay: as above
T2 construct: used as culture supernatant
Procedure: as §1

[3] = target: mouse EphA4 extracellular region-SEAP-His protein (mouse); assay: competition ELISA, competitor mouse Ephrin A1-Fc
Procedure: Antibody A obtained in Example 1 was evaluated for its inhibitory activity against the binding between mouse EphA4 and its mouse ligand according to the following steps. Each well of a 96-well plate (Nunc) was coated with an anti-alkaline phosphatase antibody (Thermo Fisher Scientific). After incubation overnight at 4° C., each well was blocked with 1% BlockAce (DS Pharma Biomedical) at room temperature for 1 hour. After washing with 0.05% Tween 20/PBS (Thermo Fisher Scientific) three times, the mouse EphA4 extracellular region-SEAP-His protein obtained by the method of Example 1 was added (final concentration: 10 nM) to each well and incubated at room temperature for 1 hour. After washing three times, ligands and serially diluted antibody A (0, 0.001, 0.003, 0.01, 0.03, 0.1, 0.3, 1,3, 10, 30, 100, 300, and 1000 nM) or a known EphA4 inhibitor KYL peptide ([…], 0, 0.003, 0.01, 0.03, 0.1, 0.3, 1, 3, 10, 30, and 100 μM, its synthesis was outsourced to Hokkaido System Science) or compound 1 (0, 0.03, 0.1, 0.3, 1,3, 10, 30, 100, 300, and 1000 μM, Formula 1, Matrix Scientific) were added to each well. The ligands used were mouse Ephrin A1-Fc chimera (R&D Systems, final concentration: 20 nM) and mouse Ephrin B2-Fc chimera (R&D Systems, final concentration: 0.6 nM). […] The absorbance at 450 nm was read using a microplate reader (Molecular Devices).

[4] = target: T3, human EphA4 extracellular region-SEAP-His protein (human, UniProt P54764 20-547); assay: SPR (Biacore A100), antibody A captured on a rat anti-mouse IgG1 CM5 chip, human EphA4 extracellular region-SEAP-His as analyte at 0.8-50 nM, 1:1 fit
T3 construct: also called hEphA4-SEAP-His
Procedure: The binding affinity of antibody A obtained in Example 1 for mouse and human EphA4 was determined by surface plasmon resonance (SPR) using Biacore A100 (GE Healthcare). First, a rat anti-mouse IgG₁ antibody produced with a conventional procedure by immunizing rat with a mouse IgG₁ antibody was immobilized on sensor chip CM5. The immobilization of the rat anti-mouse IgG1 antibody on sensor chip CM5 was performed by the amine coupling method using N-hydroxysuccinimide (NHS) and N-ethyl-N′-(3-dimethylaminopropyl)carbodiimide hydrochloride (EDC). Ethanolamine was used in blocking (the sensor chip and the reagents for immobilization were all manufactured by GE Healthcare). The antibody was diluted with a buffer solution for immobilization (10 mM sodium acetate, pH 4.5) into 1 to 2 μg/mL and immobilized on the sensor chip according to the protocol attached to Biacore A100. Antibody A was diluted with a running buffer solution HBS-EP (GE Healthcare, BR-1001-88), injected onto a flow cell for 120 seconds, and captured (amount of the antibody captured: approximately 70 to 100 RU). Subsequently, mouse or human EphA4 extracellular region-SEAP-His serially diluted in the range of 50, 25, 12.5, 6.3, 3.1, 1.6, 0.8, and 0 nM using HBS-EP was added to the sensor chip for 120 seconds. […]

T3 sequence (P54764 20-547): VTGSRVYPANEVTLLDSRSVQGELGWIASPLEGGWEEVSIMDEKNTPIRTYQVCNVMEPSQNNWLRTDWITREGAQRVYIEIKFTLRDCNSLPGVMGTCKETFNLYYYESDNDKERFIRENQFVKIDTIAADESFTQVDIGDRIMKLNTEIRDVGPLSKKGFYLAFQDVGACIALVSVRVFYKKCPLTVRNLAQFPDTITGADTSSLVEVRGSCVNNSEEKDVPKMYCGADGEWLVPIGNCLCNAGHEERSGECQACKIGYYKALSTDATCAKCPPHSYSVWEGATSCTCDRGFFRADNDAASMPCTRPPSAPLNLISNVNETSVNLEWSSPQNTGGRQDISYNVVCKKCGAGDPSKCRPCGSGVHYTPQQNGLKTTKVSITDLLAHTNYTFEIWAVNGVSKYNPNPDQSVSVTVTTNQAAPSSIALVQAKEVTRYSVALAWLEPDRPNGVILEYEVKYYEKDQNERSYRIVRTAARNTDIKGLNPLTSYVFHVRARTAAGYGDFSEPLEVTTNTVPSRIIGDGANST
T2 sequence (Q03137 20-547): as the sequence (P54764 20-547) above, with P59A, N121S, V124G, R250Q, S251N, T270S, K378R, N406S counted along it
T1 sequence (chain, as listed by the source): as the sequence (P54764 20-547) above, with N406S counted along it
mouse EphA4 extracellular region-SEAP-His protein (mouse), sequence (chain, as listed by the source limits assumed): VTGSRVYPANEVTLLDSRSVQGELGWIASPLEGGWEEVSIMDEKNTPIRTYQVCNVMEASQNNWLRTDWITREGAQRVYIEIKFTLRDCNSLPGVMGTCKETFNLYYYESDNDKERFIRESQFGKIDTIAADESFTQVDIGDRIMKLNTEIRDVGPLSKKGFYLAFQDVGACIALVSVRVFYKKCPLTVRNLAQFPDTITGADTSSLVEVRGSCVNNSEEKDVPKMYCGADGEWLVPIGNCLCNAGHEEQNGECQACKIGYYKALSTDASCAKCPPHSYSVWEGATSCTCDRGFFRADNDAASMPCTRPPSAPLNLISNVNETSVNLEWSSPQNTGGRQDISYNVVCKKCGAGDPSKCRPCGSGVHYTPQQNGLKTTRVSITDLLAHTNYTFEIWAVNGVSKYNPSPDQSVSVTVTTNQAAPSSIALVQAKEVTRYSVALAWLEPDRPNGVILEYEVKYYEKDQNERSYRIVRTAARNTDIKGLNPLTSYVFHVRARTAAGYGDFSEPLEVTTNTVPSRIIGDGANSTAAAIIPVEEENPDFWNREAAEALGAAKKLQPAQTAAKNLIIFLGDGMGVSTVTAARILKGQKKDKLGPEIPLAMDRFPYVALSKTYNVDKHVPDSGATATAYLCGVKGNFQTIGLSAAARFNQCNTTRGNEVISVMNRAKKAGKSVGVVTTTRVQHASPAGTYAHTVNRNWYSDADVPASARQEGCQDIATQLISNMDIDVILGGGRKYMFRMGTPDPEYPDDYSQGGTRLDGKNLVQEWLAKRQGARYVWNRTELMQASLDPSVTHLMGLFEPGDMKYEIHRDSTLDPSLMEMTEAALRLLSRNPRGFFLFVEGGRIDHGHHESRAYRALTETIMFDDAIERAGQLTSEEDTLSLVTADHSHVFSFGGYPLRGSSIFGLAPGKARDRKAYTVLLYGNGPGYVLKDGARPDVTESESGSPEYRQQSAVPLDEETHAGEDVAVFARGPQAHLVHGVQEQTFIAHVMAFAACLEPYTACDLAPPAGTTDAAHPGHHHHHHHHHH

B1: antibody A (antibody, mouse IgG1, kappa, V domains shown)
VH: QIQLVQSGPELKKPGETVKISCKASGYTFTDYSMHWVKQAPGKGLKWMGWINTETGEPTYADDFKGRFAFSLETSASTAYLQINNLKNEDTATYFCARIPLYYYGSRYWYFDVWGAGTTVTVSS
VL: DIQMTQSPASLSVSVGETVTITCRASENIYRNLAWYQQKQGKSPQLLVYAATNLADGVPSRFSGSGSGTQYSLKINSLQSEDFGSYYCQHFWGTPWTFGGGTKLEIKR
notes: mouse IgG1 heavy chain, kappa light chain; purified from hybridoma supernatant; also called anti-EphA4 monoclonal antibody; antibody A-IgG
[1]
  EC50 (read off the curve): ~0.1 nM
[2]
  EC50 (read off the curve): ~0.1 nM
[3]
  IC50: ~1.2 nM
[4]
  koff: 0.000152 s⁻¹
  kon: 210000 M⁻¹ s⁻¹
